The record followed here is publication PMC7253548.

In the data set the target is OsHsfB4d (Oryza sativa (rice; cv. Zhonghua 11?)) (UniProt Q10KX8). The experiment in a line: EMSA. To be noted: room temperature 20 min, buffer. On the technique in general: A gel shift assay detects complexes by their altered migration in electrophoresis.
Chain of OsHsfB4d (Oryza sativa (rice; cv. Zhonghua 11?)) (Q10KX8 whole entry): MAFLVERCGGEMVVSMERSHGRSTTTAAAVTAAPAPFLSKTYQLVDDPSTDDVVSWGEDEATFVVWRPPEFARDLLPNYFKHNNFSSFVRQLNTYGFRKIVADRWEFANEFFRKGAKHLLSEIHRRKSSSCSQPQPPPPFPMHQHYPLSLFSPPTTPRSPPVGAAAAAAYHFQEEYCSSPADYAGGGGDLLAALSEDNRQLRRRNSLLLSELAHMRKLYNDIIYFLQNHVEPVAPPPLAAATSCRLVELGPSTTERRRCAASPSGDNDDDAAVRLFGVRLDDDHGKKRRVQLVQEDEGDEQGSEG

On to “CGTCGGAATAGCTGCGAATTTGGAGGTGGAACGATCGGACTTCTCTGAGTTCTTACTCTGATGTTTGCTTGGTTTGCTTTGCGTTTTCTTCGTGGTTCTGCCGGTGAAGGGGAGCGCGGTTTTATAGAGGGCAGCGAGAGGGCATCGTGGAGCTTGGAATAAGCTTCTAGAAACTTCCAGTTTGCCCCCGCATGGGCTAGAACCTAGTACGAGATAGCTTGGGCTAGAAGTTTACACCACCGGTAGCGGGGTGGGCTGTAGCCCATAGCGTCCAG (double strand)”, for which the binding result was “binds”.
